Data on one protein can be found in PMC3246890 (The Journal of Cell Biology, 2011).

The data set deals with the molecule itself. The data set can be described thus: bead aggregation assay.

B1: NcadEC-Fc (secreted ectodomain of zebrafish N-cadherin fused to the Fc region of human IgG) (Fc fusion, UniProt Q90275 147-711, looked up)
chain: DWVIPPVNVLENSRKQFPEELVKIQSDKDKSNTLRYSVTGPGADQNPTGLFIIDPISGLLSVTKPLDREHIPNFHLRAHAVDINGNQMENPIDIIINVIDMNDNRPEFTHQIWNGTVDEGAKPGTFVMTVTSQDKDDPNTANGMLRYKILSQTPESPSSNMFTINNKTGKIITVAAGLDREKVPQYTLIIQATDMEGNPTYGLSNTATAVIRLLDVNDNAPEFTRETFHGEVPENRVNVIVTNLTVTDKDEPGTPAWNAVYRIISGDPTGRFSIPTDPVTNEGLVTVVKPVDFEMNRSFMLTVVADNEVPLASGIHRTRQSTATVSIRVIDVNESPNFDPNPKQIKLEEGLPQWSMLTTFTAHDPDRYMQQTISYSKLYDPANWLEIDPNNGRISTIAVLDRESPYVKNNLYNATFMASDNGVPRASGTGTLQIYLLDINDNAPRVFPQEAEVCERPEPNAINITAVDGDLNPNAGPYAFELPNRPSDIRRNWTLTRISGDHAQLSLKISYLESGIYELPISITDSGNLPMSNTTYLRIKVCQCDHHGDCVDMERIMAAGLGTGA
Take B1: the binding result is “binds”.
